Measurements: the DeepSol protein solubility set

assay: soluble on expression in E. coli; label from the status in PepcDB or PDB records

Soluble on expression in E. coli, soluble:
MAPSMIPFTIKLKTCLKMCIQRLRYAQEKQQAIAKQSRRQVAQLLLTNKEQKAHYRVETLIHDDIHIELLEILELYCELLLARVQVINDISTEEQLVKEHMDDGINEAIRSLIYAILFVDEVKELSQLKDLMAWKINVEFVNGVIADHIDVPEKIIKKCSPSVPKEELVDLYLKEIAKTYDVPYSKLENSLSS, MRGSHHHHHHGSVIFDKRIKDEEDVEKELGLPVLGSIQKFNMTNTRRSTSSLIVHEQPKSPISEKFRGIRSNIMFANPDSAVQSIVITSEAPGAGMSTIAANLAVAYAQAGYKTLIVDGDMRKPTQHYIFNLPNNEGLSSLLLNWSTYQDSIISTEIEDLDVLTSGPIPPNPSELITSRAFANLYDTLLMNYNFVIIDTPPVNTVTDAQLFSKFTGNVVYVVNSENNNKDEVKKGKELIEATGAKLLGVVLNRMPKDKSASYYAYYGTDES, MKFAFIAKHRSIWPVAWLCEALGVSRSGFHAWFNRSPSEHARHDEVLLERIKQSFQSSDRTYGARRVWHDVLEEGLSCGLHRIERLMRLNALRARPRRRGFPKDAGDRPVVMPNVLDRQFVADRPNQKWVADFTYIWTAEGWLYVAAVIDLFSRRVVGWSMNANMTAQLVTDALIMAIWRRGKPDALLHHSDQGSQYTSEQFQRLMGDHGITCSMSRSGNVWDNAAMESFFSSLKTERTARKVYRTRNDARADVFDYIERFYNPKRRHSTLGYLSPDDFETKVGLA, MSLAYDNVMKDKKIRVGLMTDSIPGGFYNEKGEWGGFDYDIATEIAKRMGVDIERVQVNNKTRIAYVQQGRVDISVSNMTHTRERDKSVDFSITYFFDGQKVLAKKGQFKSVKDMVGKKIATMQGTTSEVNVKRALKEAGDPNPDQSVISFQKESECFQALQMGRVAGWSTDASILVGYSAKEPGKFELVGNFLAEEPYGIAMPQDDSALRDAVNAALQDMWKDGTYKTIYNKWYGPGTPFEMPLAGQIEMWPEGHHHHHH, MSLIRIGHGFDVHAFGEDRPLIIGGVEVPYHTGFIAHSDGDVALHALTDAILGAAALGDIGKLFPDTDMQYKNADSRGLLREAFRQVQEKGYKIGNVDITIIAQAPKMRPHIDAMRAKIAEDLQCDIEQVNVKATTTEKLGFTGRQEGIACEAVALLIRQEGGSHHHHHH, MIMVSGCQQQKEETPFYYGTWDEGRAPGPTDGVKSATVTFTEDEVVETEVMEGRGEVQLPFMAYKVISQSTDGSIEIQYLGPYYPLKSTLKRGENGTLIWEQNGQRKTMTRIESKTGREEKDEKSKSLEHHHHHH, MQSFNSGSTKIHNAFPEESTRPQKAEGNTAMNILVLGSDSRGSSDADVEANTATDQRADTLMLVHVPADRKKTYAISLMRDLWIDIPGVGESKINAALAYGGVPLMVQTVESLLQQRIDHVAMIDFQGFKGLTDALGGVEVDVRIPFAPSSGPKAGQVYDAGKQTLNGDEALAFVRERKAFSDGDYQRVRNQQAYLKAIIGKVIARETLTNPVTISNMVSAVSPFVSVDKDFDAAAIGSLALSMKDVRAQDTVMFTLPTLGTGTSPDGQSIVLADTTAIADVTAALAKDQVDAYITAHALDKGFLEHHHHHH, MVLETPVCSPIDKESSSDDVQLNKPPKKKRKLDVVYPPRDNTSSSSDVKPKVPGYCGVKAIGCNRSDELLAEVALHSYNSQTGTNLELMTVTQVMLQSVAHINYHMILDAFDPANNSLSSIEICLWDAAVKNNEKLRLVTTFCSLEGSGDKGSQWDPNGVDVLYTGVMPKWLDDGALSGSEKLHYYEVNDSDLQENKWLHLYAQVGAYSKWDLGMVKHFPLEIKKVVVQTMEDDIESNLKLKSSNAIFYITFTTSGGVECACIIRQTRNGRPQHMCLEINNVEMDK, MIDCAIIGGGPAGLSAGLYATRGGVKNAVLFEKGMPGGQITGSSEIENYPGVKEVVSGLDFMQPWQEQCFRFGLKHEMTAVQRVSKKDSHFVILAEDGKTFEAKSVIIATGGSPKRTGIKGESEYWGKGVSTCATCDGFFYKNKEVAVLGGGDTAVEEAIYLANICKKVYLIHRRDGFRCAPITLEHAKNNDKIEFLTPYVVEEIKGDASGVSSLSIKNTATNEKRELVVPGFFIFVGYDVNNAVLKQEDNSMLCKCDEYGSIVVDFSMKTNVQGLFAAGDIRIFAPKQVVCAASDGATAALSVISYLEHH, MANLTEKFLRIFARRGKSIILAYDHGIEHGPADFMDNPDSADPEYILRLARDAGFDGVVFQRGIAEKYYDGSVPLILKLNGKTTLYNGEPVSVANCSVEEAVSLGASAVGYTIYPGSGFEWKMFEELARIKRDAVKFDLPLVVESFPRGGKVVNETAPEIVAYAARIALELGADAMKIKYTGDPKTFSWAVKVAGKVPVLMSGGPKTKTEEDFLKQVEGVLEAGALGIAVGRNVWQRRDALKFARALAELVYGGKKLAEPLNV

Soluble on expression in E. coli, not soluble:
MSLSSDMEGGMITMKANDTTKYLIHAEIEAEGVVERPDVVGAIFGQTEGLLGGDLDLRELQKTGRIGRIEVKIESKGGRSFGEIKVPSSLDKVETAILAAALETIERVGPCSAKIKVLKIEDVRASKRKRIVERAMNILREHFEEPEIESERIVEIVRQAIRADEIVEYGEEKLPAGPAIDESDAIIVVEGRADVLNLLKHGIKNVIAVEGTNIPKTIVELSKKKTVTAFLDGDRGGDLILKELLQVAEVDYVARAPEGKEVEDLTQKEILKSLRNKVPVEQLHVLKKEAKEGREREKLAEMPKDSISDVLRKHTESVKGRLTARVLDRNLNVIKEVPVRDLVKILKTNNMKGSAIVFDGIITQRLIDLAAKKEFDYIVGVRLGSVVKVPTSLRVITFDQLEGHHHHHH, MLNKTNTWTPSLFRDYKNAEHDACGIVSVMEKRKIPTKENIDLCIQSLVKMNHRAGFINGEGDGIGIHIDVPKALWNEKLKSSGYNPTIVDHPHFIVGHFFLNKNENIVDLKNHIRTQLNNENFAILFESDNVINSDALGPLGKQEEPLFWQVALIAENEVVNIEQTLFSVTIKIEENEAIHVASLSRDHVVYKVLGAGDTLVAYYNDLQHPLIASTMTLGHNRYSTNTLSNFFRVQPFSILGHNGEINTIAKLRDQAEMIHVPLTAGGSDSQDLNRTLETLLVQYGYSLFEAMDILFPPIINEIKLYETHLQDLYTYIREAWGHFAQGPAGIISRYKDEAVFSVDSLGLRPVWKVEIESSYIFSSEPGVVSPTEYVAEPKPLAPGEKVGLKWNEQDELVLYEHDDYQTQVYNRFKKKVDVTNYHLHLSIPKTKEIPDACDSMQVETKQYVAFGWDREHIQLLEQMATKGVEPIRSLGHDSPLAALDTDRRNIADFIKESVAVVTNPAIDRDREVEHFSTRTILGERPSLLSDAKKPFVVEMLSPIILEGSVAQSIAQELHTITYEQLIELFNTHSSIATISATFSQAETLQCALSRISSEAITAVNDGASLLLIDDADAHLNERLWIDPHLVTAKVHQVLSENKLRRNCSLVIRSGALRSLHDIVTLHGLGADSINPYLLFATVNDGTKTPITNLYNALNKGLEKVISTIGIHELRGYGRLYSSIGLHEEIANILQITNFLGSNDLAFSLESLAEDAQMRADDYNDPKVRIRKSFHIFPRIWKAIGDVAKGNSYDDYRDKLSELEENNPIAIRHLIQTKETKHVIPTEEVSISIQNHDLPFIISSMSFGSQNEIAFRAYAEAADQLNMISLNGEGGEIKDMIGKYPHTRGQQVASGRFGVNAELLNSSNLIEIKIGQGAKPGEGGHLPGSKVTAKIAEARNATIGSDLISPSNNHDIYSIEDLAQMITEIKTANQLAKVAVKVPVVPNIGTIAVGIAKAGADFINISGFDGGTGAARIHALQHVGLPVEIGVKAAHNALLEANMRHNVEIWADGGIRSVNDALKIMLLGANRIGFGTLSMIAIGCTTCRGCHLDTCHVGIATQIESEAQAKEHGLRRFVPRELESAVAGLLHLFTTFGEELKRLTGNLGYTNLQEIVGRSDLLEQVRGKNLLNLCNLLQTIEHPSVIKTEHVLEKQFEPIHSPHSKELVGVGVEQRVMGGLESCYRVRSKLYEDTKLEPLTLKYTNGSIPGNGLGAYNSENLFIHVNGGAQDGIGKTSFGGGIYITKAKGKDGLYYNGSVGKGFGYGAQKGALYVQGNADARAGIRLSGADMIIGGRMTKPLREKEQGNIGAYSNIKGFAFEYMTNGRALVLGDPGPWICAGMTGGVVYLRHDSSLGLTEQALKRRIAKGANVTLQPISKNGVRDVNELLLDYIRVLNEHEQYEEVALLTPLLDDMQQQFFEIIPKKEQADPSISTE, MGSDKIHHHHHHMKGVLYISFLVCILLGCSDSDGLPDGGKDKTARTELEIVSASIVEGNTQTRADVPFTPGSSIALFCHGQAAETSYTPVNNRKYTLNSGDSKWTAESEATTIYLGSEKADVCGYYPYVEGTVGTADTLYNVRTTIPMDTQDYDPSKELYYVANQEVDAKRYFVEMHFKHAYSRLVLNIGVEDAYPATCSINSVALANDSLFRKAVIDITSGTVGIHPDDTEKQFRGGYNITKDLPYLLDSPDKKYQADLLMIPTKLLPDPFEPTKGLSVIVNVSGFPATVIIPIDDLSDFESGKKYVVSLKLRGIAIKSVTVTTTDWDEKRLNEGVDYEPLPQS, MGSDKIHHHHHHMRKLPPLRALQIFEAAARHAHFSRAATELCITQSAVSHQVRLLEAHFGERLFIREGRQLCLTSKGNVLYHELERIFNELNDLSMQITGDCNDQLRLAVYSSFAIKWLIPRLSDFHRLHPQIKIRLDMITDDPQMSDSVADMFITGQSGQPGYVHRMLHQERLIPVICPGLLNTDHSALSVLRQHALLTVDEGPIGFDWERWLKVNSISIAATQQQHVFSHVLLAIEAAIAGQGIALASDFMVERDISKGALVALDLPAMLTGFEFNFSCKQRRLKEPAIAAFVQWLTKK, MGSDKIHHHHHHMLDAQHIQALKEIVGEENCFDDKAHKLAYCYDATRNRYEPDAVIFPRCEEDVSRLLAYCNTHKITIVPRGAGSGFTGGSLPVNGGIVLAFEKHMNKILEIDMENMVARVQPGVVNKRLQEAVEAMGLFYPPDPASEEYSTLGGNVSENAGGMRAAKYGITKDYVMALRAVLPNGDIIRAGKKTIKDVAGYNIAGILIASEGTLAVITEITLKLLSKPKLRQSAMGVFPTIESAMNAVYKTMAAGVTPVAMEFLDNLTIRAVESKFSKGLPVEAGAILITDMDGNLPEEIELQMAKIEEKFKENGALSFKKAASEEEAKDLWFARRNASQSVTIYGKKKLNEDITVPRSKLPELLQRINAISERYGVKTPCFGHTGDGNVHVNVMVEDGSDPKQLEIGHQAIEEIFKAAVELEGTLSGEHGIGISKAPFMHLAFTPEEMNLFRAIKQAFDPNNILNNGKMAL, MKITLIIPTYNAGSIWPNVLDAIKQQTIYPDKLIVIDSGSKDETVLLASDLKNISIFNIDSKDFNHGGTRNLAVTKTLDADVIIFLTQDAILADSDAIKNLVYYFSDPLIAAVCGRQLPHKDANPLAVHARNFNYSSKSIVKSKADIEKFGIKTVFMSNSFAAYRRSVFEELSGFPEHTILAEDMFMAAKMIQAGYKVAYCAEAVVRHSHNYTPREEFQRYFDTGVFHACSPWIQRDLGGAGGEGFRFVKSEIQFLLKNAPFWIPRALLTTFAKFLGYKLGKHWQSLPLSTCRYFSMYKSYWNNIQYSSSKEIKLEHHHHHH, MGSDKIHHHHHHMDQKALSMFAHLSQTLHFGKTALAHHISPSTLSRAIQRLEDEVGGELLHRDNRTVVLTDVGKKFKIYAEQQLEQWHSFKQSLDHKQAALTGKLHIYCSVTAAYSHLPPLLERFRARHPLVEIMLTTGDAADALEQVQNQSVDFAIAAAPENLPRSVYFHHLDTIALTVIAPTMTCKVQQQLSQKVLTWSEIPIILPEHGAARKRFELWYRKKQQGKPTIYATVSGHEALVSMVALGCGVGIVPQVVVDNSPVKDRVSNLENIGDIEPFELGVCCLNQAKAQPLIKAFFSSIV
